The values below come from patent US20230340064A1 (published 2023).

The target of test [1] is HLA-A1-restricted MAGE-A3EVD-MHC-multimer (MAGE-A3, …; immuneAware) (human). Put plainly: flow cytometry, MHC-multimer staining of TCR-transduced CD8+ T cells. (In general: Flow cytometry measures light scatter and fluorescence of single cells or particles in a stream.)
In test [2] the target is T1, MAGE-A3 peptide on HLA-A*01:01 (human).
T1 peptide: EVDPIGHLY
Put plainly: multimer staining. An excerpt: CD8 T cells were isolated from PBMCs of a healthy donor and transduced with three different MAGE-A3-reactive TCRs. Transduced CD8⁺ T cells were enriched by FACS using the constant beta 1 region as a marker for transduction. After expansion of these cells, they were stained either with a MAGE-A3EVD-MHC-multimer (right panel) or antibodies against CD8 and Cß1 (left panel) and analyzed by flow cytometry. Populations were gated on single live cells.
Sequences of TCR-α and TCR-β chains of MAGE-A3-reactive T-cell clones were identified by Next Generation Sequencing and after exchanging the constant TCR regions by their minimal-murinized counterparts cloned into the retroviral vector pES.12-6. For the β chain the Cß1 sequence was used. PBMCs of three healthy donors were isolated by ficoll gradient centrifugation. CD8-positive Cß1-negative T-cells were enriched by negative magnetic selection (Miltenyi) and stimulated in non-tissue culture 24-well plates with plate bound antibodies specific for CD3 and CD28. Amphotropic retroviral particles were produced by transfection of HEK293T cells with the respective TCR encoding retroviral plasmid and two expression plasmids. Three days after stimulation, CD8-positive Cß1-negative T cells were transduced and on day ten enriched for transduced CD8⁺ cells by MACS-separation using the Cβ1 constant beta region as a marker for transduction and then expanded by REP. Transgenic T cells were stained either with an HLA-A1-restricted MAGE-A3EVD-MHC-multimer (MAGE-A3, […]; immuneAware) or antibodies against CD8 and the constant β1 region.

The target in test [3] is T2, titin peptide on HLA-A*01:01 (human).
T2 peptide: ESDPIVAQY
As to the kind of experiment: cytokine release.

B1: TCR_2 (MAGE-A3-reactive TCR, transgenically expressed on CD8+ T cells) (TCR, V domains shown)
V domain 1: KQEVTQIPAALSVPEGENLVLNCSFTDSAIYNLQWFRQDPGKGLTSLLLIQSSQREQTSGRLNASLDKSSGRSTLYIAASQPGDSATYLCAVRWETSGSRLTFGEGTQLTVNP
V domain 2: DSGVTQTPKHLITATGQRVTLRCSPRSGDLSVYWYQQSLDQGLQFLIQYYNGEERAKGNILERFSAQQFPDLHSELNLSSLELGDSALYFCASSVGGGYEQYFGPGTRLTVTE
In test [1], B1 showed a percent of T cells binding the MAGE-A3EVD-MHC-multimer of 20%.

B2: TCR2 (TCR, V domains shown)
Valpha: B1 V domain 1
Vbeta: DSGVTQTPKHLITATGQRVTLRCSPRSGDLSVYWYQQSLDQGLQFLIQYYNGEERAKGNILERFSAQQFPDLHSELNLSSLELGDSALYFCASSVGGGYEQYFGPGTRLTVT
For the molecule B2, the binding result in test [2] is reported as “recognises”; in test [3], “no recognition”.

B3: TCR1 (TCR, V domains shown)
Valpha: KQEVTQIPAALSVPEGENLVLNCSFTDSAIYNLQWFRQDPGKGLTSLLLIQSSQREQTSGRLNASLDKSSGRSTLYIAASQPGDSATYLCAVIEYGNKLVFGAGTILRVKS
Vbeta: DAMVIQNPRYQVTQFGKPVTLSCSQTLNHNVMYWYQQKSSQAPKLLFHYYDKDFNNEADTPDNFQSRRPNTSFCFLDIRSPGLGDAAMYLCATSWDRGYEQFFGPGTRLTVL
For B3, the binding result in test [2] is reported as “recognises”; in test [3], “no recognition”.

B4: TCR3 (TCR, V domains shown)
Valpha: AQKVTQAQTEISVVEKEDVTLDCVYETRDTTYYLFWYKQPPSGELVFLIRRNSFDEQNEISGRYSWNFQKSTSSFNFTITASQVVDSAVYFCALSEALGYSSASKIIFGSGTRLSIRP
Vbeta: GAGVSQSPSNKVTEKGKDVELRCDPISGHTALYWYRQSLGQGLEFLIYFQGNSAPDKSGLPSDRFSAERTGGSVSTLTIQRTQQEDSAVYLCASSDPMSGAQETQYFGPGTRLLVL
As to B4, the binding result in test [2] was “recognises”; in test [3] it was “no recognition”.
